Values of other authors in paper PMC7736282.

Target: Lys175 (UniProt position 175, VASSLKWRCPF)
Experiment: NMR

VP39, cap-specific mRNA (nucleoside-2'-O-)-methyltransferase / poly(A) polymerase small subunit (Vaccinia virus)
pKa: 8.5
